Columns and labels:
[1] = target: T1, human CXCR6 (human, UniProt O00574 1-342); test: description of the chimeric clones used in the ADCC example
T1 construct: also called hu-CXCR6; wild type human CXCR6

[2] = target: T1, human CXCR6; test: screening on cells overexpressing CXCR6, one single concentration, yes/no
[3] = target: T2, cynomolgus monkey CXCR6 (cynomolgus monkey, UniProt Q9BDS6 1-343); test: as above
T2 construct: also called cyno-CXCR6; cyno monkey CXCR6
T2 sequence: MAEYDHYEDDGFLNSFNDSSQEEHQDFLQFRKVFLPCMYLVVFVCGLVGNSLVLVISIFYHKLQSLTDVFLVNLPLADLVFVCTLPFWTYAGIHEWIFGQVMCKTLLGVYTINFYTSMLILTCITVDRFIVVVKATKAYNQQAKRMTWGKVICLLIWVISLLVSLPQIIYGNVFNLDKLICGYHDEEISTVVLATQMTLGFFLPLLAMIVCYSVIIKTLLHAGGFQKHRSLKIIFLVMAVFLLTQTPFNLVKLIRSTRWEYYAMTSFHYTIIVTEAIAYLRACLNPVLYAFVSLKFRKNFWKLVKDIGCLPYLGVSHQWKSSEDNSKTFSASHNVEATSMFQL

[4] = target: T2, cynomolgus monkey CXCR6; test: description of the chimeric clones used in the ADCC example

T1 sequence (O00574 whole entry): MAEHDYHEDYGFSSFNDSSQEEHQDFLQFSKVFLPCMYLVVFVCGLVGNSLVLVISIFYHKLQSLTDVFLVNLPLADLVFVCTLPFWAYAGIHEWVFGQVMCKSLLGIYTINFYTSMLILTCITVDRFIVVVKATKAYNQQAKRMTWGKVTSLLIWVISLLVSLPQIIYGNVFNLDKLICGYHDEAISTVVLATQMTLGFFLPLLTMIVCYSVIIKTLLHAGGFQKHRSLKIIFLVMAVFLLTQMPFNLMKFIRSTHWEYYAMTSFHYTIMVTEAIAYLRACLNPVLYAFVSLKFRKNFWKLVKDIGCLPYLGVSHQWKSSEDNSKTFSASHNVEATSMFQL

B1: CNE-6E10 human/mouse chimeric antibody with human IgG1 Fc (antibody, V domains shown)
VH: EVQLVESGGGLVQPKGSLKLSCAASGFSFNTYAMNWVRQAPGKGLEWVARIRSKTNSYETYYADSVKDRFTISRDDSESMLYLQMNNLKTEDTAVYYCLSHGAFAYWGQGTLVTVSA
VL: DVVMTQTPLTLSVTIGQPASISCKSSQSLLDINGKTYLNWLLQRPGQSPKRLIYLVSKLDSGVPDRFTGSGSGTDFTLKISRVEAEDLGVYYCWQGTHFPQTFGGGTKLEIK
binding result [1]: binds

B2: Genovac1-D12 (antibody, V domains shown)
VH: EVKLEESGGGLVQPGGSMKLSCVASGFTFSNYWMNWVRQSPEKGLKWVAQIRLKSDNYGTHYAESVKGRFTISRDDSKGSVYLQMNNLRAEDTGIYYCTSNAWFAYWGQGTLVTVSA
VL: DIVMTQAAPSVPVTPGESVSISCRSSKSLLHSNGNTYLFWFLQRPGQSPQRLISYMSNLASGVPDRFSGRGSGTDFTLRISRVEAEDVGVYYCLLSLEYPYTFGSGTRLEIT
notes: Mouse-derived; tested at the screening stage
binding result [2]: binds

B3: Beacon1-A4 (antibody, V domains shown)
VH: EVQLQQSGPVLVKPGASVKMSCKTSGYTFTDYYMNWVKQSHGKSLEWIGVIKPYSGRTSYDQKFKDKATLTVDKSSSTAYMELNSLTSEDSAVYYCAREGVSITTVGSSLYYYPMDYWGQGTSVTVSS
VL: DIVLTQSPATLSVTPGASVSLSCRASQSISNNLHWYQQKSHESLRLLIKYASQSVSGIPSRFSGSGSGTDFTLTINSVETEDFGMYFCQQSNSWPRTFGGGTKLEIK
notes: as for B2
binding result [2]: binds

B4: CNGs-3B2 (antibody, V domains shown)
VH: DVQLVESGGGLVQPGGSRTLSCAASGFTFSSFGMHWVRQAPEKGLEWVAYISSGSTTIYYADTVKGRFTISRDNPKNTLFLQVTSLRSEDTAVYYCTRSHWPYWYFDVWGAGTTVTVSS
VL: DVQITQSPSYLAASPGETITINCRASKSISKYLAWYQEKPGKTNKLLIYSGSTLQSGNPSRFSGSGSGTDFTLTISRLEPEDCAMYYCQQHNEFPWTFGGGTKLEIK
notes: as for B2
binding result [2]: binds
binding result [3]: binds

B5: CNE-6E5-C1 (antibody, V domains shown)
VH: QVTLKESGPGILQSSQILSLTCSFSGFSLITSGMGVSWIRKTSGKGLEWLAHIYWDDEKRYNPSLKSRLTISKGTSRNQVFLRITSVDTTDTATYFCVRREDFGDGFDYWGQGTTLTVSP
VL: DVLMTQAPLSLPVSLGDQASISCRSSQTIVHSNGVTYLEWYLQKPGQSPKLLIYKVSNRFSGVPDRFSGSGSGTYFTLKISRVEAEDLGVYYCFQGSHVPPTFGGGTKLEIK
notes: as for B2
binding result [2]: binds
binding result [3]: binds

B6: CNGs-1E1-G5 (antibody, V domains shown)
VH: QVQLQQSGPELVKPGASVRISCKASGYTFTTSYIHWVKQRPGQGLEWIGWISPGNVNTRSNEKFKGKATLTADKSSNTAYMQLSSLTSEDSAVYFCAKSYFGFDFWGQGTTLTVSS
VL: DVLMTQTPLSLPVSLGDQASISCRSSQSIVHSNGNTYLEWYVQKPGQSPKLLIYKVSNRSSGVPDRFSGSGSGTDFTLKISRVEAEDLGVYYCFQGSHVPYTFGGGTKLEIK
notes: as for B2
binding result [2]: binds

B7: CNE-7B1 (antibody, V domains shown)
VH: QVQLQQSGPELVKPGTSVRISCKTSGYTFTSSYVHWVKRRPGQGLEWIGWIYPGNDYTKYNEKFKGKATLTADKSSSTAYMRLSSLASEDSAVYFCTRSYYGFDYWGQGTTLTVSS
VL: DVLMTQTPLSLPVSLGDQASISCRSGQSIVRSRGNTYLEWYLQKPGQSPKLLIYKVSNRFSGVPDRFSGSGSGTDFTLKISRVEAEDLGVYYCFQGSHVPYTFGGGTKLEIK
notes: as for B2
binding result [2]: binds

B8: Genovac1-G2 human/mouse chimeric antibody with human IgG1 Fc (antibody, V domains shown)
VH: DVQLQESGPGLVKPSQSLSLTCSVTGYSITSGYYWNWIRQFPGNKLEWMGYIRYDGSNNYNPSLKNRISITRDTSKNQFFLKLNSVTTEDTATYYCARDGYSTYFDYWGQGTTLTVSS
VL: DIQMTQSPASLSASVGETVTITCRASENIYSYLAWYQQKQGKSPQLLVYNAKTLAEGVPSRFSGSGSGTQFSLKINSLQPEDFGSYYCQHHYGTPWTFGGGTKLEIK
binding result [1]: binds
binding result [4]: binds

B9: chimeric COXs-1B10 (antibody, V domains shown)
VH: QVTLKESGPGILKASQTLSLTCSFSGFSLSTSGMGIGWIRQPSGKGPEWLAHIWWDDEKYYRPSLKSRLTVSKDTSRNQVFLNITSVDTTDSASYYCVQRTPGRFAYWGQGTLVTVST
VL: DIVMTQSPSSLAVSIGQKVIMSCKSSQSLLSSRTQKNYLAWYQQKPGQSPKLLVYFASIRESGVPDRFTGSGSGTDFTLTISTVQAEDLAVYYCQQYFLTPYTFGGGTKLEIK
notes: also called COXs-1B10 human chimeric mAb
binding result [1]: binds

B10: Genovac2-H2 (antibody, V domains shown)
VH: EVKLEESGGGLVRPGGSMKLSCVASGFTFSDYWMNWVRQSPEKGLEWLAQIRLNSGNYAARYAESVKGRFTISRDDSKNSVYLQMINLRAEDTGIYFCTSNAWLANWGQGTLVTVSA
VL: DIQMTQSPASLSVSVGETVTITCRASENIYNNLAWYQQKQGKSPQLLVYAATNLADGVPSRFSGSGSGTQYSLKINSLQSEDFGSYYCQHFWGTPWTFGGGTKLEIK
notes: as for B2
binding result [2]: binds

B11: Beacon2-A7 (antibody, V domains shown)
VH: EMKLEESGGGLVQPGGSMKLSCVASGFTFSNYWMSWVRQSPEKGLQWVGQIRLKSDNYATHYAESVKGKFTISRDDSKSSVYLQMNNLRAEDTGIYYCAPYSNWGYWGQGTTLTVSS
VL: DIVMTQAAPSIPVTPGGSVSISCRSTKSLLHTNGNTYLYWFLQRPGQSPQVLIYRMSNLASGVPDRFSGSGSGTAFTLRISRVEAEDVGVYYCMQYLEYPYTFGSGTKLEIK
notes: as for B2
binding result [2]: binds

B12: COXs-2D2 human/mouse chimeric antibody with human IgG1 Fc (antibody, V domains shown)
VH: EVQLVESGGGLVQPKGSLKLSCTASGFSFDTYAMNWVRQAPGKGLEWIARIRSKSKNYATYYADSVKDRFTISRDDSANILYLQMNNLKTEDTAIYYCLRQGSFDYWGQGTTLTVSS
VL: DVVLTQTPLSLPVSLGDQASISCRSGQRIVHTDGNTYLYWYLQKPGQSPKLLIYRVSNRFSGVPDRFSGSGSGTDFTLKISRVEAEDMGIYYCFQGTHFPYTFGGGTKLEIK
binding result [1]: binds

B13: Beacon2-F1 (antibody, V domains shown)
VH: EVQLVESGGDLVKPGGSLKLSCAASGFTFSSYGMSWVRQTPDKRLEWVATISSGGSYTYYPDSVKGRFPISRDNAKNTLYQQMSSLNSEDTAMYYCARLYGNYPYFAMDYWGQGTSVTVSS
VL: DIVMTQSQKFMSTSVGDRVSITCKASQNVGTAVAWYQQKPGQSPKLLIFSASNRYTGVPDRFTGSGSGTDFTLTISNMQSEDLADYFCQQYSSYPYTFGGGTKLEIK
notes: as for B2
binding result [2]: binds
binding result [3]: binds

B14: CNGs-1B7-E4 (antibody, V domains shown)
VH: EVQLVESGGGLVQPRGSLKLSCAASGFTFNTYAMNWVRQAPGNGLEWVARIRSKSYNYATYHAGSVKDRFTISRDDSQNMLYLQMNNLKTEDTAMYYCMRGQTYWGQGTLVTVSA
VL: DVVLTQTPLSLPVNIGDQASISCKSTKSLLNSDGFTYLDWHLQKPGQSPQLLIYLVSNRFSGVPDRFSGSGSGTDFTLKISRVEAEDLGVYYCFQSNYLPFTFGSGTKLEMK
notes: as for B2
binding result [2]: binds

B15: Beacon2-A3 (antibody, V domains shown)
VH: EVQIVESGGGLVQPKGSLKLSCAASGFSFNTYAMNWVRQAPGKGLEWVARIRTKRNNYVKFYADSVKDRFTISRDDSESMLYLQMNILKTEDTAMYYCVRQGAYWGQGTLVTVSA
VL: DVVLTQTPLSLPVNIGDQASISCKSTKSLLNSDGFTYLDWYLQKPGQSPQLLIYLVSNRFSGVPDRFSGSGSGTDFTLKISRVEAEDLGVYFCFQSNYLPYTFGGGTKLEIK
notes: as for B2
binding result [2]: binds

B16: CNGs-3H2-B7 (antibody, V domains shown)
VH: EVQLVESGGGLVQPKGSLKLSCAASGVSFKTYAMTWVRQAPGKGLEWVARIRSKRYNYATYYADSVKDRFTISRDDSESMLYLQMNNLKTEDTAMYYCMRQGAYWGQGTLVTVSA
VL: DVVLTQTPLSLPVNIGDQASISCKSTKSLLNSDGFTYLDWYLQKPGQSPHLLIYLVSNRFSGVPDRFSGSGSGTDFTLKISRVEAEDLGVYYCFQSNYLPFTFGSGTKLEIK
notes: as for B2
binding result [2]: binds

B17: Beacon2-E5 (antibody, V domains shown)
VH: EVQLVESGGGLVQPKGSLKLSCAASGFSFNTYAMNWVRQAPGKGLEWVARIRTKRNNYVKFYADSVKGRFTISRDDSQSMLYLQMNNLKAEDTAIYYCVRQGAFWGQGTLVTVSA
VL: DVVLTQTPLSLPVNIGDQASISCKSTKSLLNSDGFTYLDWYLQKPGQSPQLLIYLVSNRFSGVPDRFSGSGSGTDFTLRISRVEAEDLGVYYCFQSNYLPYTFGGGTKLEIK
notes: as for B2
binding result [2]: binds
